Common to all, as to conditions: both partners purified
The target of test [1] is T1, Rab escort protein (REP), recombinant REP‐His (Arabidopsis thaliana, UniProt Q8LLD4 1-563).
T1 construct: Rab escort protein (REP) of Arabidopsis thaliana, wild type; Plasmid was a gift (Dr. Michal Hala); HDX‐MS peptides are reported from region 1–14 to beyond amino acid 534, so the whole protein was probably present; also called WT REP; AtREP; source: E. coli BL21(DE3)pLysS, purified (Ni‐NTA agarose, HiTrapQ, Superdex 75)
T1 sequence (looked up): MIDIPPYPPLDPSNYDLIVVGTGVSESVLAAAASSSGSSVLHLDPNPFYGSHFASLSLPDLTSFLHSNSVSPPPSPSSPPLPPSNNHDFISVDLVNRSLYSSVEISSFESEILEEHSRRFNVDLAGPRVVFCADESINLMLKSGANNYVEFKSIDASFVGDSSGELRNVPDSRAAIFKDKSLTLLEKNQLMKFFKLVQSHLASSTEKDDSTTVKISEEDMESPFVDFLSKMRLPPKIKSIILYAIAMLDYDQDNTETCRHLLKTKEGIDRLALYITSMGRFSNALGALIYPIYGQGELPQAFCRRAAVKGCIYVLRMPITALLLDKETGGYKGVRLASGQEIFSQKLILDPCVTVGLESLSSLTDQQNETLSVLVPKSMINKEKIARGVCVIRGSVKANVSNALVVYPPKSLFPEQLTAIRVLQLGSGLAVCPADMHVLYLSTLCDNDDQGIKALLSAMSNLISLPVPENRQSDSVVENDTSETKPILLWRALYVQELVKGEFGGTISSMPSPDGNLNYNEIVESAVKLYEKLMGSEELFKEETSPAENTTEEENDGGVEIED
Nature of the test: SEC; purified proteins diluted to 65 nM in 200 μl Tris 20 mM pH 7.5, 100 mM NaCl, 10 mM MgCl2, 1 mM DTT, 1.5 mM GDP, incubated 4 h at room temperature; Superdex 75 10/300 GL; fractions resolved by SDS‐PAGE.

The target in test [2] is T1, Rab escort protein (REP), recombinant …. Nature of the test: HDX-MS; complexes of REP‐His with GST‐Rab from SEC against each protein alone (apo); 20 mM Tris‐DCl, 100 mM NaCl, 5 mM MgCl2, 1 mM GDP pH 7.5 in D2O; 10 sec, 1 min, 60 min; pepsin digestion; triplicate.
The target of test [3] is T2, REPΔC‐His, truncated form of REP lacking 30 C‐terminal amino acids (Arabidopsis thaliana, UniProt Q8LLD4 1-533).
T2 construct: Rab escort protein (REP) of Arabidopsis thaliana lacking 30 C‐terminal amino acids; cloned from pGWB551‐REP with primers BP‐rep‐F and BP‐rep‐R into pET301/CT‐DEST; Gateway cloning (pDONR201, pET301/CT‐DEST) may add linker residues between REP and the His tag; also called truncated mutant; truncated REP version; source: E. coli BL21(DE3)pLysS, purified (Ni‐NTA agarose)
T2 sequence (looked up): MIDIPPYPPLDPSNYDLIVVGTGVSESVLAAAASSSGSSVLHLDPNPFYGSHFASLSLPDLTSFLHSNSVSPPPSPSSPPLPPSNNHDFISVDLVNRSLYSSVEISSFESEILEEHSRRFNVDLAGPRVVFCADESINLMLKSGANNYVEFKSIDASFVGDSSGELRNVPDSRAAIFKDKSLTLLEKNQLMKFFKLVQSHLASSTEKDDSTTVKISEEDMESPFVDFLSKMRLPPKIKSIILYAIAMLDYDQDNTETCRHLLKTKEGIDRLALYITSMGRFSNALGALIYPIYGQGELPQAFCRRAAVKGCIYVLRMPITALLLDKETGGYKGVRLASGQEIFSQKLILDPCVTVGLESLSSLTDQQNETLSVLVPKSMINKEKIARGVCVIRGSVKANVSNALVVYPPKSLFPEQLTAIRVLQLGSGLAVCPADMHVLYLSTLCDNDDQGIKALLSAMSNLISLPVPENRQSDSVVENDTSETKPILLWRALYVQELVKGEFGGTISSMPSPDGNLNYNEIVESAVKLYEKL
Nature of the test: SEC; purified proteins diluted to 65 nM in 200 μl Tris 20 mM pH 7.5, 100 mM NaCl, 10 mM MgCl2, 1 mM DTT, 1.5 mM GDP, incubated 4 h at room temperature; Superdex 75 10/300 GL; fractions resolved by SDS‐PAGE. (In gel filtration, larger molecules generally elute earlier.)

B1: Rab‐E1d cleaved from its GST tag (natural protein)
chain: not shown
notes: Rab‐E1d of Arabidopsis thaliana, from GST‐Rab‐E1d (pGEX4T1, SmaI) after thrombin cleavage; A few vector‐derived residues probably remain at the end after thrombin cleavage; also called E1d no tag; untagged Rab‐E1d
Take B1: the binding result in test [1] is “binds”.

B2: GST‐Rab‐D1 (natural protein)
chain: not shown
notes: Rab‐D1 of Arabidopsis thaliana, cloned from Col‐0 leaf cDNA into pGEX4T1 cut with SmaI; unprenylated; Used in the presence of GDP; source: E. coli BL21(DE3)pLysS, purified (Glutathione‐Sepharose 4B, Superdex 75)
As to B2, the binding result in test [2] and in test [3] was “binds” in each case.

B3: GST‐Rab‐E1d (natural protein)
chain: not shown
notes: Rab‐E1d of Arabidopsis thaliana, cloned from Col‐0 leaf cDNA into pGEX4T1 cut with SmaI; unprenylated; Used in the presence of GDP; source: E. coli BL21(DE3)pLysS, purified (Glutathione‐Sepharose 4B, Superdex 75)
Take B3: the binding result in test [1] and in test [3] was “binds” in each case.

B4: GST‐Rab‐F2b (natural protein, Arabidopsis thaliana, UniProt Q9SN68 1-200, looked up)
chain: MAAAGNKSINAKLVLLGDVGAGKSSLVLRFVKDQFVEFQESTIGAAFFSQTLAVNDATVKFEIWDTAGQERYHSLAPMYYRGAAAAIIVFDVTNQASFERAKKWVQELQAQGNPNMVMALAGNKSDLLDARKVTAEDAQTYAQENGLFFMETSAKTATNVKEIFYEIARRLPRVQPTENPTGMVLPDRAMDRAVSSSCCA
notes: Rab‐F2b of Arabidopsis thaliana, cloned from Col‐0 leaf cDNA into pGEX4T1 cut with SmaI; unprenylated; Used in the presence of GDP; source: E. coli BL21(DE3)pLysS, purified (Glutathione‐Sepharose 4B, Superdex 75)
Turning to B4, the binding result in test [2] was “binds”.

Source of the values: PMC9293207, “Impact of C‐terminal truncations in the Arabidopsis Rab escort protein (REP) on REP–Rab interaction and plant fertility” (The Plant Journal, 2021).
